Experimental data as given in patent publication US7422745 (IXSYS, dated 2008).

How the values were obtained:
[1] = target: integrin αvβ3 on cells (M21 human melanoma cells; human umbilical vein endothelial cells) (human) (UniProt P06756); test: cell-based or functional assay
[2] = target: T1, integrin αvβ3 (human vitronectin receptor), purified from human placenta (human, UniProt P06756 31-1048; P05106 27-788); test: ELISA titration of bacterial cell lysate containing Fab on immobilized αvβ3, detection with goat anti-human kappa-alkaline phosphatase
T1 construct: mature; coated on ELISA plates or immobilized on a BIAcore chip; Biotinylated in capture lift and capture ELISA screens; also called avb3; αvβ3 receptor
T1 sequence (P06756 31-1048, form in doubt, chain 1 of 2): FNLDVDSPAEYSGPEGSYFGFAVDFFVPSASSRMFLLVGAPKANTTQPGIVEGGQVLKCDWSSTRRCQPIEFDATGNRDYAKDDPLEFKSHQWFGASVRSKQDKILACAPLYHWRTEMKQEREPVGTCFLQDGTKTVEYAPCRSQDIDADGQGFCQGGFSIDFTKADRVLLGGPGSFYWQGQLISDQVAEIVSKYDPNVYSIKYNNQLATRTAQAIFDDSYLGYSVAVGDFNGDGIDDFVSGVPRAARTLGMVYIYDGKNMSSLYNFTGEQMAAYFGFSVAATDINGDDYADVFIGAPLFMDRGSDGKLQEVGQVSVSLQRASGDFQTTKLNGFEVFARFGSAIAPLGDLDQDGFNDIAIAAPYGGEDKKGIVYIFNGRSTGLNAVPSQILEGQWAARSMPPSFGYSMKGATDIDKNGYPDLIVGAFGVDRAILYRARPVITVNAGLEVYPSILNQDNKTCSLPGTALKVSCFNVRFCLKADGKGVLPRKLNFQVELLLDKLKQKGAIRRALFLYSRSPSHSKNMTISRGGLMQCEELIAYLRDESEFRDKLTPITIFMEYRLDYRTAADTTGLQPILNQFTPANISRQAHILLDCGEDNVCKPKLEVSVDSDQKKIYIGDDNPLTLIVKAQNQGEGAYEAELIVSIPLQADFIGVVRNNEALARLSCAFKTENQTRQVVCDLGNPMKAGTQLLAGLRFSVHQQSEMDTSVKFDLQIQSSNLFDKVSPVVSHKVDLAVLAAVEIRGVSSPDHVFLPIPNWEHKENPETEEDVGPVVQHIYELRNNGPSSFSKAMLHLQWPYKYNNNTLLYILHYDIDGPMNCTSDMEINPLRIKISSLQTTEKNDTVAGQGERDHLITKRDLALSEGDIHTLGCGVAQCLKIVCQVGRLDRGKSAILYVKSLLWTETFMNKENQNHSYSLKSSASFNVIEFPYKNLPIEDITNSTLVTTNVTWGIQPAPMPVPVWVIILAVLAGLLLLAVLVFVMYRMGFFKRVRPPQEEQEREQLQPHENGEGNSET
T1 sequence (P05106 27-788, form in doubt, chain 2 of 2): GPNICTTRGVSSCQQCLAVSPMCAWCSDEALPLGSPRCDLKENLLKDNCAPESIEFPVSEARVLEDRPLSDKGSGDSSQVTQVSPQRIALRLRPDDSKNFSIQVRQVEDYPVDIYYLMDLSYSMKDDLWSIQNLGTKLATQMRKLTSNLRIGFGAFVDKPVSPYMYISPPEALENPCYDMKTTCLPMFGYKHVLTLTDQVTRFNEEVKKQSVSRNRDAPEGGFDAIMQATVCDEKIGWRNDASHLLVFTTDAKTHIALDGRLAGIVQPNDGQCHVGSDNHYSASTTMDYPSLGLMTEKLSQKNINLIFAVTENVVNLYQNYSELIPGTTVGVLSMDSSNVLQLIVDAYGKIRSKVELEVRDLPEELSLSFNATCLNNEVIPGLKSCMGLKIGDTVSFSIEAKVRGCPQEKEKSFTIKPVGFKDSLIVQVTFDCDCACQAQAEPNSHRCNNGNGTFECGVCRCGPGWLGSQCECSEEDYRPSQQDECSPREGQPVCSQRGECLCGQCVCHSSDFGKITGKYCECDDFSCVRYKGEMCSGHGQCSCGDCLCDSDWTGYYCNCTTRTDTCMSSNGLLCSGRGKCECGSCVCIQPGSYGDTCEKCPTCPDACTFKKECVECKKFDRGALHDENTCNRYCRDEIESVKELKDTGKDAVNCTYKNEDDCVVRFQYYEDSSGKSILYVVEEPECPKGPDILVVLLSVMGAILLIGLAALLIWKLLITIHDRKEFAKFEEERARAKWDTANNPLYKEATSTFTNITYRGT

[3] = target: T1, integrin αvβ3 (human vitronectin …); test: ELISA on immobilized αvβ3 incubated with 0.1 µg/ml biotinylated fibrinogen (the blocked ligand) and various concentrations of Fab for 3 h at 37 °C; bound fibrinogen detected with NeutrAvidin-alkaline phosphatase

Sequence of integrin αvβ3 on cells (M21 human melanoma cells; human umbilical vein endothelial cells) (human) (P06756 31-1048, chain 1 of 2): as the sequence (P06756 31-1048, form in doubt, chain 1 of 2) above
Sequence of integrin αvβ3 on cells (M21 human melanoma cells; human umbilical vein endothelial cells) (human) (P05106 27-788, chain 2 of 2, further chain): as the sequence (P05106 27-788, form in doubt, chain 2 of 2) above

| Molecule | EC50 (read off the curve) [2] [µg/mL] | further results |
| --- | --- | --- |
| monoclonal antibody LM609 (murine IgG) |  | decrease in vitronectin-induced migration of human umbilical vein endothelial cells (transwell), antibody at 5 µg/ml [1]: 60% |
| LM609 grafted antibody Fab (parent molecule) (Fab, V domains shown, Fab expressed from M13 phage vector in E. coli, purified on protein A; also called LM609 grafted Fab; wild type) VH: QVQLVESGGGVVQPGRSLRLSCAASGFTFSSYDMSWVRQAPGKGLEWVAKVSSGGGSTYYLDTVQGRFTISRDNSKNTLYLQMNSLRAEDTAVYYCARHNYGSFAYWGQGTTVTVSS VL: EIVLTQSPATLSLSPGERATLSCQASQSISNHLHWYQQRPGQAPRLLIRYRSQSISGIPARFSGSGSGTDFTLTISSLEPEDFAVYYCQQSGSWPHTFGGGTKVEIK | ~0.4 |  |
| LM609 grafted antibody variant S102 (Fab, V domains shown, Fab; also called clone S102) VH: QVQLVESGGGVVQPGRSLRLSCAASGFTFSSYDMSWVRQAPGKGLEWVAKVSSGGGSTYYLDTVQGRFTISRDNSKNTLYLQMNSLRAEDTAVYYCARHNYGSFASWGQGTTVTVSS VL: EIVLTQSPATLSLSPGERATLSCQASQSISNHLHWYQQRPGQAPRLLIRYRSQSISGIPARFSGSGSGTDFTLTISSLEPEDFAVYYCQQSGSWPHTFGGGTKVEIK | ~0.1 |  |
| LM609 grafted antibody combinatorial clone C59 (Fab, V domains shown, Fab) VH: QVQLVESGGGVVQPGRSLRLSCAASGFTFSSYDMSWVRQAPGKGLEWVAKVSSGGGSTYYPDTVQGRFTISRDNSKNTLYLQMNSLRAEDTAVYYCARHNYGSFADWGQGTTVTVSS VL: EIVLTQSPATLSLSPGERATLSCQASQSISNFLHWYQQRPGQAPRLLIRYRSQSISGIPARFSGSGSGTDFTLTISSLEPEDFAVYYCQQSGSWPHTFGGGTKVEIK |  | IC50 (read off the curve) [3]: ~0.1 µg/mL |
